# Laboratory results taken from IntAct's records for PubMed 35512704.
# B1: Speckle-type POZ protein (Homo sapiens), O43791 (parent)
# chain: MSRVPSPPPPAEMSSGPVAESWCYTQIKVVKFSYMWTINNFSFCREEMGEVIKSSTFSSGANDKLKWCLRVNPKGLDEESKDYLSLYLLLVSCPKSEVRAKFKFSILNAKGEETKAMESQRAYRFVQGKDWGFKKFIRRDFLLDEANGLLPDDKLTLFCEVSVVQDSVNISGQNTMNMVKVPECRLADELGGLWENSRFTDCCLCVAGQEFQAHKAILAARSPVFSAMFEHEMEESKKNRVEINDVEPEVFKEMMCFIYTGKAPNLDKMADDLLAAADKYALERLKVMCEDALCSNLSVENAAEILILADLHSADQLKTQAVDFINYHASDVLETSGWKSMVVSHPHLVAEAYRSLASAQCPFLGPPRKRLKQS
# partner: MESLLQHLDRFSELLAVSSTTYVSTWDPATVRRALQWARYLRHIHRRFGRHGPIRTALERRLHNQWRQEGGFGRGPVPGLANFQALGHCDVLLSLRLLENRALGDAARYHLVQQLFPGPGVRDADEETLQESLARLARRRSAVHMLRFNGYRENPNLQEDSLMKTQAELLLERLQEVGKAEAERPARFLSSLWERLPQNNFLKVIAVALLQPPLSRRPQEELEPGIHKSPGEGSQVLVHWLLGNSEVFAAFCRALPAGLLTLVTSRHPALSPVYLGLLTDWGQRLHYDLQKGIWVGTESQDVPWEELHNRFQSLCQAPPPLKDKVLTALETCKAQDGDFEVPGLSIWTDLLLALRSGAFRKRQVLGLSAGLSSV
# B2: Speckle-type POZ protein (Homo sapiens), O43791 (parent)
# chain: B1 chain
# partner: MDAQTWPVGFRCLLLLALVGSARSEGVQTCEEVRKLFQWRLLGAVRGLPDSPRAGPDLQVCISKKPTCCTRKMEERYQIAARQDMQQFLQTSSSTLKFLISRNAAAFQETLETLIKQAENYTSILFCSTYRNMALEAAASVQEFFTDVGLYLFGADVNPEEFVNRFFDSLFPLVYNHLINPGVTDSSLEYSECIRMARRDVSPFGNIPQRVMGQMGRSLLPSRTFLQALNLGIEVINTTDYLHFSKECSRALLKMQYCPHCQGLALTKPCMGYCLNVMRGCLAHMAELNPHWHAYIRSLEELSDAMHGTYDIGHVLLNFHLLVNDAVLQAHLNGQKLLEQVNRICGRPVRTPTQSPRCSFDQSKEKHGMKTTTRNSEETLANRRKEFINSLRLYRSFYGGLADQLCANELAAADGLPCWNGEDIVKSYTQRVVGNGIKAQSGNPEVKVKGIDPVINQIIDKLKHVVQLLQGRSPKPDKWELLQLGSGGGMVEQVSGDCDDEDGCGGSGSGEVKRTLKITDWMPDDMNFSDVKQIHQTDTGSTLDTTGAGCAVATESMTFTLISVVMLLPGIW
# B3: Speckle-type POZ protein (Homo sapiens), O43791 (parent)
# chain: B1 chain
# partner: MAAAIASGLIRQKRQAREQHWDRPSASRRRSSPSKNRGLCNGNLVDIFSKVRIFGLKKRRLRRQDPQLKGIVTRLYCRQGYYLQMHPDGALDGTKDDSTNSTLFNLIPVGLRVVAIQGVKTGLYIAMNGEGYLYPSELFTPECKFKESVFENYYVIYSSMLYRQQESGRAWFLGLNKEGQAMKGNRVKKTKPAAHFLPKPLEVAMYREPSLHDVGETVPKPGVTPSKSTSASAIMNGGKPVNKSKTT
# B4: Speckle-type POZ protein (Homo sapiens), O43791 (parent)
# chain: B1 chain
# partner: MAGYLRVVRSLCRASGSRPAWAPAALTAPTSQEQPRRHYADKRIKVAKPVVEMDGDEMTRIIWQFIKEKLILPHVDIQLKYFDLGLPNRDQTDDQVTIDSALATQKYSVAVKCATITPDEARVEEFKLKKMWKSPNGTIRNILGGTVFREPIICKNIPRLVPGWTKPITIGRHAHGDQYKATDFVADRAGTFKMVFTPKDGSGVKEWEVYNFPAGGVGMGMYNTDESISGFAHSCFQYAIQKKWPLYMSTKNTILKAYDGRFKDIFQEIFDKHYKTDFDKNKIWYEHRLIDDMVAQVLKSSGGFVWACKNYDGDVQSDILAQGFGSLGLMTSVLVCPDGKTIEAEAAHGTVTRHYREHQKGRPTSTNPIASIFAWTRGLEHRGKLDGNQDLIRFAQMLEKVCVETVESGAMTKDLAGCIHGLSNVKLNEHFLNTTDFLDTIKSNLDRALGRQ
# B5: Speckle-type POZ protein (Homo sapiens), O43791 (parent)
# chain: B1 chain
# partner: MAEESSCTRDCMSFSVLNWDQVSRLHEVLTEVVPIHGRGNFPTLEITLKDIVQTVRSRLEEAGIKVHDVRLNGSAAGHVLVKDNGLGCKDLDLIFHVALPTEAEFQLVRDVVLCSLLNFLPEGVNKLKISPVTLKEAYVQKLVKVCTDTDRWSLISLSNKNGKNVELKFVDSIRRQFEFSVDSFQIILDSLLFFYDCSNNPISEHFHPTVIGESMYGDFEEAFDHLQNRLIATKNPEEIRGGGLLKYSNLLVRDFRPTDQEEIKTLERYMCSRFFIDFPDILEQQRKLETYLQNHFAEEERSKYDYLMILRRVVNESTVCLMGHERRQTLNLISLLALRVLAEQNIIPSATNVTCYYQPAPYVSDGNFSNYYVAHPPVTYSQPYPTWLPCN
# B6: Speckle-type POZ protein (Homo sapiens), O43791 (parent)
# chain: B1 chain
# partner: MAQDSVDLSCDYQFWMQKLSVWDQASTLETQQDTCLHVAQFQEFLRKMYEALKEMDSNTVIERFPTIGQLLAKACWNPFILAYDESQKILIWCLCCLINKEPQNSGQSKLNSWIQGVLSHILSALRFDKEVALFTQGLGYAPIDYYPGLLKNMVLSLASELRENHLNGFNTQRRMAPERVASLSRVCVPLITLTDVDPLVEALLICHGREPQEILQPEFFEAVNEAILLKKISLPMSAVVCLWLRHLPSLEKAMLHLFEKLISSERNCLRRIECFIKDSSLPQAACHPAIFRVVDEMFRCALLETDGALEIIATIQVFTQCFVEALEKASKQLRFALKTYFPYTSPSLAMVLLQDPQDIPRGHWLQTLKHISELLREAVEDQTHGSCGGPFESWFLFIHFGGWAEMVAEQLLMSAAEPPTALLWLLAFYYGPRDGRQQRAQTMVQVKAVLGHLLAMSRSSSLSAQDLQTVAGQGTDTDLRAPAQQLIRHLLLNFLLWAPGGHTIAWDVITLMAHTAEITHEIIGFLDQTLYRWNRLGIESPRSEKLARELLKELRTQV
# Variants of: B1
# Details: with fancf_human FANCF
row,Variant,effect of a mutation on the interaction
1,F102C,with no effect

# Variants of: B1
# Details: with fancf_human FANCF
# Remark: another data set of the same source
row,Variant,effect of a mutation on the interaction
1,F133V,with no effect

# Variants of: B1
# Details: with fancf_human FANCF
# Remark: another data set of the same source
row,Variant,effect of a mutation on the interaction
1,F133L,with no effect

# Variants of: B1
# Details: with fancf_human FANCF
# Remark: another data set of the same source
row,Variant,effect of a mutation on the interaction
1,Y87C,causing an interaction

# Variants of: B2
# Details: with gpc5_human GPC5, P78333
row,Variant,effect of a mutation on the interaction
1,Y87C,with no effect

# Variants of: B2
# Details: with gpc5_human GPC5, P78333
# Remark: another data set of the same source
row,Variant,effect of a mutation on the interaction
1,F102C,with no effect

# Variants of: B2
# Details: with gpc5_human GPC5, P78333
# Remark: another data set of the same source
row,Variant,effect of a mutation on the interaction
1,F133L,with no effect

# Variants of: B2
# Details: with gpc5_human GPC5, P78333
# Remark: another data set of the same source
row,Variant,effect of a mutation on the interaction
1,F133V,with no effect

# Variants of: B3
# Details: with fgf14_human FGF14, Q92915
row,Variant,effect of a mutation on the interaction
1,F102C,with no effect

# Variants of: B3
# Details: with fgf14_human FGF14, Q92915
# Remark: another data set of the same source
row,Variant,effect of a mutation on the interaction
1,F133V,with no effect

# Variants of: B3
# Details: with fgf14_human FGF14, Q92915
# Remark: another data set of the same source
row,Variant,effect of a mutation on the interaction
1,F133L,with no effect

# Variants of: B3
# Details: with fgf14_human FGF14, Q92915
# Remark: another data set of the same source
row,Variant,effect of a mutation on the interaction
1,Y87C,with no effect

# Variants of: B4
# Details: with idhp_human IDH2, P48735
row,Variant,effect of a mutation on the interaction
1,Y87C,with no effect

# Variants of: B4
# Details: with idhp_human IDH2, P48735
# Remark: another data set of the same source
row,Variant,effect of a mutation on the interaction
1,F102C,with no effect

# Variants of: B4
# Details: with idhp_human IDH2, P48735
# Remark: another data set of the same source
row,Variant,effect of a mutation on the interaction
1,F133L,with no effect

# Variants of: B4
# Details: with idhp_human IDH2, P48735
# Remark: another data set of the same source
row,Variant,effect of a mutation on the interaction
1,F133V,with no effect

# Variants of: B5
# Details: with tet5c_human TENT5C
row,Variant,effect of a mutation on the interaction
1,Y87C,with no effect

# Variants of: B5
# Details: with tet5c_human TENT5C
# Remark: another data set of the same source
row,Variant,effect of a mutation on the interaction
1,F102C,with no effect

# Variants of: B5
# Details: with tet5c_human TENT5C
# Remark: another data set of the same source
row,Variant,effect of a mutation on the interaction
1,F133V,with no effect

# Variants of: B5
# Details: with tet5c_human TENT5C
# Remark: another data set of the same source
row,Variant,effect of a mutation on the interaction
1,F133L,with no effect

# Variants of: B6
# Details: with fancc_human FANCC
row,Variant,effect of a mutation on the interaction
1,F102C,with no effect

# Variants of: B6
# Details: with fancc_human FANCC
# Remark: another data set of the same source
row,Variant,effect of a mutation on the interaction
1,Y87C,with no effect

# Variants of: B6
# Details: with fancc_human FANCC
# Remark: another data set of the same source
row,Variant,effect of a mutation on the interaction
1,F133V,with no effect
